Results as given in publication PMC7300195 (Frontiers in Immunology, 2020).

What was measured:
Experiment in all cases: BLI
Conditions in all cases: both partners purified
[1] = target: NiV G trimer: NiV G head domain residues 172-602 coupled to an N-terminal foldon domain (Nipah virus, Malaysia (AAK50545.1), UniProt Q9IH62)
[2] = target: hexameric NiV G: two G ectodomain headgroups linked by a foldon trimerization domain via short glycine linkers (Nipah virus, Malaysia (AAK50545.1), UniProt Q9IH62)
[3] = target: T1, NiV G ferritin 24-mer nanoparticle: NiV G ectodomain residues 172-602 linked to the C-terminus of ferritin … (Nipah virus, Malaysia (AAK50545.1), UniProt Q9IH62)
T1 construct: copies: 24

Measured: binding result

B1: m102.4 monoclonal antibody (HeV G-specific antibody), human IgG1/kappa (antibody, V domains shown)
VH: EVQVIQSGADVKKPGSSVKVSCKSSGGTFSKYAINWVRQAPGQGLEWMGGIIPILGIANYAQKFQGRVTITTDESTSTAYMELSSLRSEDTAVYYCARGWGREQLAPHPSQYYYYYYGMDVWGQGTTVTVSS
VL: EIVMTQSPGTLSLAPGERATLSCWASQSVRNNYLAWYQQKPGQAPRLVIYNGSTRATGIPDRFSGSGSGTDFTLTISRLDPEDFAVYYCQQYGNSRRVTFGGGTKVEIK
binds: all assays above
